Experimental data: article PMC3072985

Molecular target: Mycobacterium tuberculosis Bacterioferritin B (BfrB), full length (Mycobacterium tuberculosis H37Rv) (UniProt P9WNE5)
Assay: crystal structure; recombinant BfrB, 11 mg/ml, 20% PEG 3350, 0.1 M Tris pH 8.5, 293 K; 3.0 Å; 24 subunits in the asymmetric unit

“Mycobacterium tuberculosis Bacterioferritin B (BfrB), full length (from UniProt P9WNE5 1-181) (natural protein)” was tested, and the stoichiometry N was 24.
